Experimental data published in patent US20130150294A1 (UNIVERSITY OF TOLEDO, published 2013).

B1: GST-SERCA-CD3 (other)
chain: GTRRMAKKNAIVRSLPSVETLGCTSVICSDKTGTLTTNQMSVCRMFILDKVEGDTCSLNEFTITGSTYAPIGEVQKDDKPVKCHQYDGLVELATICALCNDSALDYNEAKGVYEKVGEATETALTCLVEKMNVFDTELKGLSKIERANACNSVIKQLMKKEFTLEFSRDRKSMSVYCTPNKPSRTSMSKMFVKGAPEGVIDRCTHIRVGSTKVPMTPGVKQKIMSVIREWGSGSDTLRCLALATHDNPLRREEMHLEDSANFIKYETNLTFVGCVGMLDPPRIEVASSVKLCRQAGIRVIMITGDNKGTAVAICRRIGIFGQDEDVTSKAFTGREFDELSPSAQRDACLNARCFARVEPSHKSKIVEFLQSFDEITAMTGDGVNDAPALKKSEIGIAMGSGTAVAKTASEMVLADDNFSTIVAAVEEGRAIYNNMKQFIRYLISSNV
notes: also called GST-CD3 from rat heart sarcoplasmic reticulum Ca2+-ATPase 2a
B2: GST-KD1 of Src (other)
chain: LRLEVKLGQGCFGEVWMGTWNGTTRVAIKTLKPGTMSPEAFLQEAQVMKKLRHE
notes: also called GST-tagged Src truncation; not shown: glutathione S-transferase (GST) fusion tag

Columns and labels:
[1] = target: T1, Src of LLC-PK1 cells (endogenous) (pig, UniProt K7GM45 2-548); assay: GST pulldown from cell lysates, Western blot
T1 construct: Species from the cell line (pig kidney proximal LLC-PK1); also called Src from the LLC-PK1 cell lysates; Src in TCN23-19 and PY-17 cells (clones of LLC-PK1)

[2] = target: purified pig kidney Na+/K+-ATPase (PKE) (pig, UniProt P05024 6-1021; P05027 1-303); assay: in vitro binding assay with GST-tagged Src truncations and purified Na+/K+-ATPase

Binder | binding result [1] | binding result [2]
B1 | no binding (tested: 1 mg LLC-PK1 cell lysates) | –
B2 | – | binds
